In this data set the target is T1, EngHD (Engrailed homeodomain, DNA-binding domain) (Drosophila melanogaster) (UniProt P02836).
T1 sequence: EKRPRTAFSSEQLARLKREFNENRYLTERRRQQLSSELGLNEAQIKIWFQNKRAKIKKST
Put plainly: FCS. As to conditions: ~1 nM Alexa 488-EngHD with unlabeled dsDNA titrated, ionic strength 50 mM (NaCl) unless stated, buffer, pH and temperature not in the material.

The text below walks through data of paper PMC6987225.

One may read the Kd as the free concentration of one partner at which half of the binding sites on the other are occupied at equilibrium, for simple one-to-one binding. “CCATGGTTCTTAACCAAATTGAATTCTCGCCACCGATCGTGTTCGCCCGAAATAAATCTGGCCGAAAAGCCATCAATCTACAATCTAACTGTGCCTCGGTTTATACCTCCAACTGCCGTTCACCGAAAAGGCCGACAGTTTTCCGACAAAGACAAATTCTTAACCAAATTGAATTCTCGCCACCGATCGTGTTCGCCCGAAATAAATCTGGCCGAAAAGCCATCAATCTACAATCTAACTGTGCCTCGGTTTATACCTCCAACTGCCGTTCACCGAAAAGGCCGACAGTTTTCCGACTAATTGTTCTTAACCAAATTGAATTCTCGCCACCGATCGTGTTCGCCCGAAATAAATCTGGCCGAAAAGCCATCAATCTACAATCTAACTGTGCCTCGGTTTATACCTCCAACTGCCGTTCACCGAAAAGGCCGACAGTTTTCCGACTTCTTAACCAAATTGAATTCTCGCCACCGATCGTGTTCGCCCGAAATAAATCTGGCCGAAAAGCCATCAATCTACAATCTAACTGTGCCTCGGTTTATACCTCCAACTGCCGTTCACCGAAAAGGCCGACAGTTTTCCGACAAAGACAAAAAGCTT (double strand) [600 bp TAATTG]”: the Kd worked out at 2.2 nM.
Consider full beta3-tubulin gene 7219 bp, for which the Kd (upper estimate, text: sub-nM) was below 0.7 nM.
